Fewer inactive variants are shown than the library holds.

For one series, the system named is biotinyl-Phe-oxazolone. In words: self-aminoacylation, catalytic enhancement (BFO) (fold over background); higher = more active; k-Seq, kA / k0A0; sequences stand for … in GGGAAUGGAUCCACAUCUACGAAUUC…UUCACUGCAGACUUGACGAAGCUG
A digest of the protocol:
(§1)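 The uncatalyzed rate is the low-activity peak of a bimodal Gaussian fit, and catalytic enhancement is median kA divided by it. The kA values came from pseudo-first-order fits, with 1000 bootstraps, of per-sequence fraction reacted measured by streptavidin capture, triplicate qPCR and Illumina sequencing. Mutagenized RNA pools with a 21-nt variable region (0.43 μM) were reacted with each biotinyl-aminoacyl-oxazolone at 2–1250 μM in 50 μL HEPES/NaCl/KCl/MgCl2/CaCl2 buffer with 5% acetonitrile, pH 6.9–7.0, for 90 minutes at room temperature.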

Another series deals with biotinyl-Ile-oxazolone. Briefly: self-aminoacylation, catalytic enhancement (BIO) (fold over background); higher = more active; k-Seq, kA / k0A0; sequences stand for … in GGGAAUGGAUCCACAUCUACGAAUUC…UUCACUGCAGACUUGACGAAGCUG
A digest of the protocol: as §1

The next series concerns biotinyl-Met-oxazolone. In words: self-aminoacylation, catalytic enhancement (BMO) (fold over background); higher = more active; k-Seq, kA / k0A0; sequences stand for … in GGGAAUGGAUCCACAUCUACGAAUUC…UUCACUGCAGACUUGACGAAGCUG
A digest of the protocol: as §1

Another series has as its system biotinyl-Val-oxazolone. In words: self-aminoacylation, catalytic enhancement (BVO) (fold over background); higher = more active; k-Seq, kA / k0A0; sequences stand for … in GGGAAUGGAUCCACAUCUACGAAUUC…UUCACUGCAGACUUGACGAAGCUG
In short, it runs like this:
as §1

The test system of the next series is biotinyl-Leu-oxazolone. Briefly: self-aminoacylation, catalytic enhancement (BLO) (fold over background); higher = more active; k-Seq, kA / k0A0; sequences stand for … in GGGAAUGGAUCCACAUCUACGAAUUC…UUCACUGCAGACUUGACGAAGCUG
In short, it runs like this: as §1

The next series has as its system biotinyl-Trp-oxazolone. Briefly: self-aminoacylation, catalytic enhancement (BWO) (fold over background); higher = more active; k-Seq, kA / k0A0; sequences stand for … in GGGAAUGGAUCCACAUCUACGAAUUC…UUCACUGCAGACUUGACGAAGCUG
In short, it runs like this: as §1

In the case of “CAACUUCGAACAAUCGGUCUG [Fam1A.1 aminoacylation ribozyme variant]”, the self-aminoacylation was found to be 2.22 in the series on biotinyl-Phe-oxazolone; 1.21 in the series on biotinyl-Ile-oxazolone; 1.1 with biotinyl-Met-oxazolone; 1.15 in the series with biotinyl-Val-oxazolone; 0.999 with biotinyl-Leu-oxazolone; 2.15 with biotinyl-Trp-oxazolone.

In the case of “CAACUUCUAACAAUCGGUCUG [Fam1A.1 aminoacylation ribozyme variant]”, the self-aminoacylation in the series with biotinyl-Phe-oxazolone was 1.44; in the series on biotinyl-Ile-oxazolone it was 0.904; with biotinyl-Met-oxazolone it was 0.722; in the series with biotinyl-Val-oxazolone, 0.917; in the series on biotinyl-Leu-oxazolone, 0.743; in the series with biotinyl-Trp-oxazolone, 1.05.

As to “CAAGUUCAAACAAUCGGUCUG [Fam1A.1 aminoacylation ribozyme variant]”, the self-aminoacylation in the series on biotinyl-Phe-oxazolone is 6.99; in the series with biotinyl-Ile-oxazolone, 0.983; with biotinyl-Met-oxazolone, 0.954; with biotinyl-Val-oxazolone it was 0.969; in the series with biotinyl-Leu-oxazolone it was 1.02; with biotinyl-Trp-oxazolone, 4.9.

As for “CACUUUGCUAAUAGUCGCAAG [Fam3.1 aminoacylation ribozyme variant]”, the self-aminoacylation in the series with biotinyl-Phe-oxazolone was 0.947; with biotinyl-Ile-oxazolone, 1.41; in the series on biotinyl-Met-oxazolone it was 1.32; with biotinyl-Val-oxazolone, 1.01; in the series on biotinyl-Leu-oxazolone, 1.38; with biotinyl-Trp-oxazolone, 2.22.

Turning to “CAGUUAGCUAAUAGUCGCAAG [Fam3.1 aminoacylation ribozyme variant]”, the self-aminoacylation in the series with biotinyl-Phe-oxazolone amounted to 1.67; in the series with biotinyl-Ile-oxazolone, 1.21; with biotinyl-Met-oxazolone, 1.17; with biotinyl-Val-oxazolone it was 1.32; in the series on biotinyl-Leu-oxazolone it was 1.04; in the series with biotinyl-Trp-oxazolone, 0.96.

With “CAGUUUGCUAAUAGGCGCAAG [Fam3.1 aminoacylation ribozyme variant]”, the self-aminoacylation stood at 0.95 in the series with biotinyl-Phe-oxazolone; 1.21 in the series with biotinyl-Ile-oxazolone; 1.14 with biotinyl-Met-oxazolone; 1.27 in the series with biotinyl-Val-oxazolone; 1.35 in the series on biotinyl-Leu-oxazolone; 0.744 in the series with biotinyl-Trp-oxazolone.

In the case of “CAGUUUGCUAAUAGUCACAAG [Fam3.1 aminoacylation ribozyme variant]”, the self-aminoacylation is 2.59 in the series on biotinyl-Phe-oxazolone; 1.04 in the series on biotinyl-Ile-oxazolone; 1.04 in the series on biotinyl-Met-oxazolone; 0.952 with biotinyl-Val-oxazolone; 1.11 in the series with biotinyl-Leu-oxazolone; 1.3 in the series on biotinyl-Trp-oxazolone.

As to “CAUCUUCAAACAAUCGGUCUG [Fam1A.1 aminoacylation ribozyme variant]”, the self-aminoacylation in the series with biotinyl-Phe-oxazolone was 47; in the series on biotinyl-Ile-oxazolone, 1.14; in the series on biotinyl-Met-oxazolone it was 1.48; in the series on biotinyl-Val-oxazolone it was 1.23; in the series on biotinyl-Leu-oxazolone it was 1.96; with biotinyl-Trp-oxazolone, 24.5.

Turning to “CCAAACUUCAAGCAAUCGGCC [Fam1B.1 aminoacylation ribozyme variant]”, the self-aminoacylation in the series with biotinyl-Phe-oxazolone is 4.84; with biotinyl-Ile-oxazolone it was 2.38; in the series with biotinyl-Met-oxazolone, 2.21; with biotinyl-Val-oxazolone, 3.04; in the series on biotinyl-Leu-oxazolone it was 3.45; with biotinyl-Trp-oxazolone, 5.38.

Regarding “CCAAACUUCUAGCAAUCGGUC [Fam1B.1 aminoacylation ribozyme variant]”, the self-aminoacylation in the series on biotinyl-Phe-oxazolone stood at 1.01; with biotinyl-Ile-oxazolone, 0.961; in the series with biotinyl-Met-oxazolone, 0.839; with biotinyl-Val-oxazolone, 0.952; in the series on biotinyl-Leu-oxazolone it was 0.733; in the series on biotinyl-Trp-oxazolone, 0.667.

For the sequence “CCAAGCUUCAAGCAAUCGGUC [Fam1B.1 aminoacylation ribozyme variant]”, the self-aminoacylation in the series on biotinyl-Phe-oxazolone was 86.5; in the series with biotinyl-Ile-oxazolone, 1.35; with biotinyl-Met-oxazolone it was 1.51; with biotinyl-Val-oxazolone it was 1.3; with biotinyl-Leu-oxazolone, 2.5; with biotinyl-Trp-oxazolone, 44.9.

For “CCACAAUUCAAACAAUCGGUC [Fam1B.1 aminoacylation ribozyme variant]”, the self-aminoacylation in the series on biotinyl-Phe-oxazolone worked out at 18.1; with biotinyl-Ile-oxazolone, 1.26; in the series with biotinyl-Met-oxazolone, 1.08; with biotinyl-Val-oxazolone it was 1.04; with biotinyl-Leu-oxazolone, 1.19; in the series with biotinyl-Trp-oxazolone it was 8.88.

As to “CCACAAUUCAAGCAAUCGAUC [Fam1B.1 aminoacylation ribozyme variant]”, the self-aminoacylation in the series with biotinyl-Phe-oxazolone was determined as 0.898; with biotinyl-Ile-oxazolone, 0.742; in the series on biotinyl-Met-oxazolone, 0.699; with biotinyl-Val-oxazolone, 0.888; in the series with biotinyl-Leu-oxazolone, 0.685; in the series on biotinyl-Trp-oxazolone, 0.675.

With “CCACAAUUCAAGCACUCGGUC [Fam1B.1 aminoacylation ribozyme variant]”, the self-aminoacylation in the series on biotinyl-Phe-oxazolone amounted to 0.706; with biotinyl-Ile-oxazolone, 1.4; in the series with biotinyl-Met-oxazolone, 1.17; with biotinyl-Val-oxazolone, 1.18; with biotinyl-Leu-oxazolone, 1.24; in the series with biotinyl-Trp-oxazolone, 0.787.

In the case of “CCACAAUUCAAGCCAUCGGUC [Fam1B.1 aminoacylation ribozyme variant]”, the self-aminoacylation with biotinyl-Phe-oxazolone amounted to 1.19; in the series with biotinyl-Ile-oxazolone it was 1.46; with biotinyl-Met-oxazolone, 1.47; with biotinyl-Val-oxazolone, 1.7; in the series with biotinyl-Leu-oxazolone it was 1.59; with biotinyl-Trp-oxazolone, 1.3.

On to “CCACAAUUCAGGCAAUCGGUC [Fam1B.1 aminoacylation ribozyme variant]”, for which the self-aminoacylation stood at 1.29 in the series on biotinyl-Phe-oxazolone; 1.47 in the series on biotinyl-Ile-oxazolone; 1.37 with biotinyl-Met-oxazolone; 1.42 in the series with biotinyl-Val-oxazolone; 1.46 in the series with biotinyl-Leu-oxazolone; 0.94 in the series with biotinyl-Trp-oxazolone.

“CCACACAUCAAGCAAUCGAUC [Fam1B.1 aminoacylation ribozyme variant]”: the self-aminoacylation with biotinyl-Phe-oxazolone is 0.914; in the series with biotinyl-Ile-oxazolone, 0.575; with biotinyl-Met-oxazolone it was 0.439; with biotinyl-Val-oxazolone it was 0.748; in the series on biotinyl-Leu-oxazolone, 0.581; in the series with biotinyl-Trp-oxazolone it was 0.513.

Take “CCACACAUCAAGCAAUCGGCC [Fam1B.1 aminoacylation ribozyme variant]”: the self-aminoacylation in the series with biotinyl-Phe-oxazolone was 4.94; in the series with biotinyl-Ile-oxazolone, 2.66; in the series with biotinyl-Met-oxazolone it was 1.65; in the series on biotinyl-Val-oxazolone, 2.9; with biotinyl-Leu-oxazolone, 2.25; in the series on biotinyl-Trp-oxazolone, 2.88.

For “CCACACAUCAAGCAGUCGGUC [Fam1B.1 aminoacylation ribozyme variant]”, the self-aminoacylation in the series on biotinyl-Phe-oxazolone was determined as 0.847; in the series with biotinyl-Ile-oxazolone it was 0.93; with biotinyl-Met-oxazolone it was 0.686; with biotinyl-Val-oxazolone, 1.05; in the series on biotinyl-Leu-oxazolone it was 0.799; in the series with biotinyl-Trp-oxazolone it was 0.457.

With “CCACACAUCAAGCCAUCGGUC [Fam1B.1 aminoacylation ribozyme variant]”, the self-aminoacylation in the series with biotinyl-Phe-oxazolone is 1.07; in the series on biotinyl-Ile-oxazolone, 1.19; in the series on biotinyl-Met-oxazolone, 1.04; with biotinyl-Val-oxazolone, 1.27; in the series with biotinyl-Leu-oxazolone it was 1.01; in the series on biotinyl-Trp-oxazolone, 0.895.

Turning to “CCACACAUCAAGCUAUCGGUC [Fam1B.1 aminoacylation ribozyme variant]”, the self-aminoacylation was 0.819 with biotinyl-Phe-oxazolone; 0.954 with biotinyl-Ile-oxazolone; 0.888 in the series with biotinyl-Met-oxazolone; 1.15 in the series with biotinyl-Val-oxazolone; 0.914 with biotinyl-Leu-oxazolone; 0.735 in the series with biotinyl-Trp-oxazolone.

In the case of “CCACACAUCAGGCAAUCGGUC [Fam1B.1 aminoacylation ribozyme variant]”, the self-aminoacylation worked out at 1.15 with biotinyl-Phe-oxazolone; 1.25 in the series on biotinyl-Ile-oxazolone; 1.03 in the series with biotinyl-Met-oxazolone; 1.3 with biotinyl-Val-oxazolone; 1.12 in the series with biotinyl-Leu-oxazolone; 0.806 in the series on biotinyl-Trp-oxazolone.

As to “CCACACAUCCAGCAAUCGGUC [Fam1B.1 aminoacylation ribozyme variant]”, the self-aminoacylation in the series on biotinyl-Phe-oxazolone is 0.873; with biotinyl-Ile-oxazolone, 1.2; in the series with biotinyl-Met-oxazolone, 1.05; with biotinyl-Val-oxazolone, 1.08; with biotinyl-Leu-oxazolone, 0.983; in the series with biotinyl-Trp-oxazolone it was 0.847.

For the sequence “CCACACCACAAGCAAUCGGUC [Fam1B.1 aminoacylation ribozyme variant]”, the self-aminoacylation with biotinyl-Phe-oxazolone was 0.854; in the series on biotinyl-Ile-oxazolone, 1.13; with biotinyl-Met-oxazolone, 0.999; in the series with biotinyl-Val-oxazolone, 1.1; in the series with biotinyl-Leu-oxazolone, 0.949; in the series on biotinyl-Trp-oxazolone it was 0.871.

“CCACACCGCAAGCAAUCGGUC [Fam1B.1 aminoacylation ribozyme variant]”: the self-aminoacylation turned out to be 0.867 in the series on biotinyl-Phe-oxazolone; 1.12 with biotinyl-Ile-oxazolone; 1.13 in the series with biotinyl-Met-oxazolone; 1.13 in the series with biotinyl-Val-oxazolone; 0.882 in the series with biotinyl-Leu-oxazolone; 1.02 in the series on biotinyl-Trp-oxazolone.

For the origin of these results see the supplement of paper PMC9233669.
